Results on seven molecules are retold here after paper PMC10874388, “Cyclic peptides discriminate BCL-2 and its clinical mutants from BCL-XL by engaging a single-residue discrepancy” (Nature Communications, 2024).

A word on the Ki: it is the dissociation constant of the complex between target and ligand, obtained from inhibition or displacement. The term Kd denotes the equilibrium constant for the complex coming apart. Higher therefore signals lower affinity.

Starred links: 1 amine or outer side, 2 acyl side, 3 side chain; linkers in the order of their positions; H or OH if unused. Positions of bridges follow the written chain, without caps; N, C: chain ends. Residues, ends and D or L forms follow the SMILES beside them. Primed or numbered codes have the meaning given here. No end group written: not given here. *: point of attachment. X1 = O=C(C[*:2])NCCNC(=O)c1ccc(C2=N[C@H](C(=O)[*:1])CS2)cc1; FITC = O=C1OC2(c3ccc(O)cc3Oc3cc(O)ccc32)c2ccc(NC(=S)*)cc21; cADT = 2-aryl-4,5-dihydrothiazole (ADT) linker; c‑ADT″ = 2-aryl-4,5-dihydrothiazole linker; FITC′ = fluorescein isothiocyanate; ADT (ClAc-3) = not defined here

Sequences and labels used below:
T1: chimeric human BCL-2 (residues 1-50 and 92-207, residues 35-50 replaced with residues 33-48 of BCL-XL) (human, UniProt P10415 1-34; Q07817-1 33-48; P10415 92-207, biotinylated for the SPR assays (sites not given))
T1 construct: BCL-2, human, residues 1-34 (residues 35-50 are replaced, see next part); BCL-XL, human, residues 33-48, replacing residues 35-50 of BCL-2; BCL-2, human, residues 92-207 (internal loop 51-91 removed); also called BCL-2 WT; source: E. coli BL21 (DE3), purified (Ni-NTA, Superdex 75, RESOURCE Q, Superdex 200)
T1 chain (looked up): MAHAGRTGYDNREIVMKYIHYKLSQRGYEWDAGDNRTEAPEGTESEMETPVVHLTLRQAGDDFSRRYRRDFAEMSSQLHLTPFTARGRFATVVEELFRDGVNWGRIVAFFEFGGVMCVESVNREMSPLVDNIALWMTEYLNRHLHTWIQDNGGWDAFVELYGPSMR

T2: BCL-w (residues 6-152) (human, UniProt Q92843 6-152, biotin (biotinylated for SPR; site not stated))
T2 construct: source: E. coli BL21 (DE3), purified (Ni-NTA, Superdex 75, RESOURCE Q, Superdex 200)
T2 sequence (looked up): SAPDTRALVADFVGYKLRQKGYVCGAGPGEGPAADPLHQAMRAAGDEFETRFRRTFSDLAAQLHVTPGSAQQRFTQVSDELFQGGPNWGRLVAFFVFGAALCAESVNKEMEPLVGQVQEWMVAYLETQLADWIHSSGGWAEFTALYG

T3: cp2-F (linker 1-11 via ADT (ClAc-3) (inferred); reading uncertain; also: modified by ClAc-3, printed as CPIRYEWDEFCG{K(FITC)})
T3 construct: also called cp2-FITC; source: synthetic peptide
T3 peptide: CPIRYEWDEFCGK(FITC′)

B1: cp3 (peptide)
peptide: CPIRYPWDVEC-NH2
modifications: linker 1-11 via c‑ADT″
notes: cyclic peptide from the CPXRYXWDXXC phage library screened against BCL-XL; source: synthetic peptide
B2: cp2 (peptide)
peptide: CPIRYEWDEFC
modifications: linker 1-11 via cADT (inferred)
notes: cyclic peptide from the second phage library CPXRYXWDXXC screened against BCL-2; they agree with I3, E6, E9 and F10 named in the text
B3: cp2 (peptide)
peptide: CPIRYEWDEFC-NH2
modifications: linker 1-11 via c‑ADT″
notes: cyclic peptide from the CPXRYXWDXXC phage library screened against BCL-2; source: synthetic peptide
B4: chimeric human BCL-2 (residues 1-50 and 92-207, residues 35-50 replaced with residues 33-48 of BCL-XL) (domain or fragment, UniProt P10415 1-34, looked up)
chain: T1 chain (looked up)
modifications: biotin (biotinylated for SPR; site not stated)
notes: BCL-2, human, residues 1-34 of the chimera (internal loop 51-91 removed; residues 35-50 replaced with residues 33-48 of BCL-XL); BCL-XL, human, residues 33-48, in place of BCL-2 residues 35-50; BCL-2, human, residues 92-207; Biotinylated for SPR; used as such for crystals and fluorescence polarisation; also called BCL-2 WT; source: E. coli BL21 (DE3), purified (Ni-NTA, Superdex 75, RESOURCE Q, …)
B5: cp3 (peptide)
peptide: CPIRYPWDVEC
modifications: linker 1-11 via cADT (inferred)
notes: cyclic peptide from the second phage library CPXRYXWDXXC screened against BCL-XL; they agree with P6, V9 and E10 named in the text

For one series, the system named is Jurkat cells. It counts as cell-based. On the procedure: Supplementary Figure 10 Functional mechanism of CPs. a. IC50 values of venetoclax against A549, MGC-803 and PANC-1 cells, measured after 48 h treatment by a CellTiter-Glo assay and calculated using Prism 7.0 by a nonlinear-fit method. Data are presented as mean ± s.d.; n= 6 biological replicates. b. Western blot detecting the protein expression levels of BCL-2 and BCL-XL in A549, MGC-803, Daudi and Jurkat cells. c-d. Western blot detecting the protein expression levels of BCL-2 and BCL-XL in El4 cells (c) and RS4:11 cells (d). e. Western blot verifying the protein expression levels of exogenous BCL-2 in normal A549 cells (control) and those stably overexpressing BCL-2 WT or G101V mutant. f. qPCR results testing the overexpression of BCL-2 WT or G101V mutant in A549 stable cells. Data are presented as mean ± s.d.; n= 6 biological replicates; one-way ANOVA with Dunnett’s multiple comparisons test. g. Cell viability assay of Jurkat cells after 48 h treatment with DMSO, cp1-FITC, cp6-FITC, respectively. P1 represents the percentage of active cells. h. FITC signal tests after 48 h treatment with DMSO, cp1-FITC, cp6-FITC, respectively. P4 represents cells with the FITC signal. i-k. Structures of cp1-TAT, cp2-TAT and cp3-TAT. […]

For series [1], the target named is T1, chimeric human BCL-2 (residues 1-50 and …). As to the kind of experiment: fluorescence polarisation; competition: cp2-F/BCL-2 complexes (20/400 nM) or cp3-F/BCL-XL complexes (20/600 nM) treated with unlabelled peptides from 1.0 nM to 30.0 uM; 1x PBS pH 7.4, room temperature, 10 min; Ki calculated from EC50, one-site competitive model. The note with it: both partners purified.

In series [2] the target is T4, human BCL-XL (residues 1-210, with 27-81 and 210-233 removed) (human, UniProt Q07817-1 1-210, 27-81 removed, biotinylated for the SPR assays (sites not given)).
T4 construct: BCL-XL, human, residues 1-210 with the loop 27-81 removed; source: E. coli BL21 (DE3), purified (Ni-NTA, Superdex 75, RESOURCE Q, Superdex 200)
T4 sequence (Q07817 other isoform, or with tags, fused parts or gaps 27-81 removed | 27-81 removed): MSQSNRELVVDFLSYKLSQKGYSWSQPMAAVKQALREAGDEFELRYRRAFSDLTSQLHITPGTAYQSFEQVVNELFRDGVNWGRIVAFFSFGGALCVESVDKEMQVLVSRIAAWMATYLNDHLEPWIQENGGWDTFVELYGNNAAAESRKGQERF
Described as above. The note with it: both partners purified.

The target in a further series is T5, BCL-2-F104L (human, UniProt P10415 1-34; Q07817 33-48; P10415 92-207, F104L, biotin (biotinylated for SPR; site not stated)).
T5 construct: BCL-2, human, residues 1-34 of the chimera, as m6; BCL-XL, human, residues 33-48, in place of BCL-2 residues 35-50; BCL-2, human, residues 92-207; Chimera m6 with F104L, a drug-resistant mutation found in a mouse model (residue number of the human protein); also called BCL-2 F104L mutant; source: E. coli BL21 (DE3), purified (Ni-NTA, Superdex 75, RESOURCE Q, Superdex 200)
As to the kind of experiment: SPR; Biacore T200; biotinylated proteins immobilised on a CAP sensor chip; peptides flowed in multiple cycles (25-12800 nM, depending on the peptides) at 30 uL/min; 10 mM PBS, 50 uM EDTA, 0.05% Tween-20, 25 °C; affinity fitting, 1:1 binding model. The note with it: both partners purified. For orientation: SPR reads the build-up and loss of mass on a sensor chip optically.

The target in the next series is T6, BCL-2-D111A (human, UniProt P10415 1-34; Q07817 33-48; P10415 92-207, D111A, biotin (biotinylated for SPR; site not stated)).
T6 construct: BCL-2, human, residues 1-34 of the chimera, as m6; BCL-XL, human, residues 33-48, in place of BCL-2 residues 35-50; BCL-2, human, residues 92-207; Chimera m6 with the point mutation D111A made by mutagenic PCR; also called BCL-2 D111A mutant; source: E. coli BL21 (DE3), purified (Ni-NTA, Superdex 75, RESOURCE Q, Superdex 200)
T6 sequence (P10415 other isoform, or with tags, fused parts or gaps D111A | D111A | D111A D111A): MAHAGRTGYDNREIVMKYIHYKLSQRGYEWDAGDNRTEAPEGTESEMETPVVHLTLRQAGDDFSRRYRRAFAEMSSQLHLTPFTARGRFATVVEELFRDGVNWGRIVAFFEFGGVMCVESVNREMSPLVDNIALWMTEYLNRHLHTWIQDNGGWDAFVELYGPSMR
Described as above. As to conditions: both partners purified.

The target of a further series is T7, BCL-2-D103Y (human, UniProt P10415 1-34; Q07817 33-48; P10415 92-207, D103Y, biotin (biotinylated for SPR; site not stated)).
T7 construct: BCL-2, human, residues 1-34 of the chimera, as m6; BCL-XL, human, residues 33-48, in place of BCL-2 residues 35-50; BCL-2, human, residues 92-207; Chimera m6 with the clinical mutation D103Y; source: E. coli BL21 (DE3), purified (Ni-NTA, Superdex 75, RESOURCE Q, Superdex 200)
T7 sequence (P10415 other isoform, or with tags, fused parts or gaps D103Y | D103Y | D103Y D103Y): as the sequence (P10415 other isoform, or with tags, fused parts or gaps D111A | D111A | D111A D111A) above, with D62Y, A70D counted along it
The description is as above. As to conditions: both partners purified.

The target of series [3] is T8, human BCL-XL (residues 1-210, with 27-81 and 210-233 removed) (human, UniProt Q07817-1 1-209, 27-81 removed, biotin (biotinylated for SPR; site not stated)).
T8 construct: BCL-XL, human; printed as residues 1-210, with 27-81 and 210-233 removed (so the last residue is 209 or 210); source: E. coli BL21 (DE3), purified (Ni-NTA, Superdex 75, RESOURCE Q, Superdex 200)
T8 sequence (Q07817 other isoform, or with tags, fused parts or gaps 27-81 removed | 27-81 removed): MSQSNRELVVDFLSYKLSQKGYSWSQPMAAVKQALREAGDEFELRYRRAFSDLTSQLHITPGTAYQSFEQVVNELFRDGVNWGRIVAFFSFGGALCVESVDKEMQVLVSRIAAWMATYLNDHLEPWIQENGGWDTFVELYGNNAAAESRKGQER
The description is as above. The note with it: both partners purified.

Series [4] has as its target B4. The series is described as above. The note with it: both partners purified.
A further series concerns the target T2, BCL-w (residues 6-152). The series is described as above. As to conditions: both partners purified.
Another series has as its target T9, BCL-2-G101V (human, UniProt P10415 1-34; Q07817 33-48; P10415 92-207, G101V, biotin (biotinylated for SPR; site not stated)).
T9 construct: BCL-2, human, residues 1-34 of the chimera, as m6; BCL-XL, human, residues 33-48, in place of BCL-2 residues 35-50; BCL-2, human, residues 92-207; Chimera m6 with the venetoclax-resistant clinical mutation G101V; also called BCL-2 G101V mutant; source: E. coli BL21 (DE3), purified (Ni-NTA, Superdex 75, RESOURCE Q, Superdex 200)
The series is described as above. The note with it: both partners purified.

A further series addresses T3, cp2-F. As to the kind of experiment: fluorescence polarisation; direct binding: 20 nM FITC-labelled peptide, protein 60-1000 nM, 1x PBS pH 7.4, room temperature, 10 min. As to conditions: both partners purified. Background: In fluorescence polarisation assays a small probe gives low polarisation when free and higher when bound to something large.

T9 sequence (P10415 other isoform, or with tags, fused parts or gaps G101V | G101V | G101V G101V): as the sequence (P10415 other isoform, or with tags, fused parts or gaps D111A | D111A | D111A D111A) above, with G60V, A70D counted along it

Regarding `C[C@@H]1NC(=O)[C@@H]2CCCN2C(=O)[C@@H]2CSC(=N2)c2ccc(cc2)C(=O)NCCNC(=O)CSC[C@@H](C(=O)NCC(=O)N[C@@H](CCCCNC(=S)Nc2ccc3c(c2)C(=O)OC32c3ccc(O)cc3Oc3cc(O)ccc32)C(N)=O)NC(=O)[C@H](CCC(=O)O)NC(=O)[C@H](Cc2ccc(O)cc2)NC(=O)[C@H](CC(=O)O)NC(=O)[C@H](Cc2c[nH]c3ccccc23)NC(=O)CNC(=O)[C@H](Cc2ccc(O)cc2)NC(=O)[C@H](CCCNC(=N)N)NC1=O` [cp1-FITC] (PARYGWDYECGK(FITC)-NH2; linker N-10 via X1), the “Penetration efficiency (FITC signal in cells)” value with Jurkat cells is recorded as “relatively low penetration efficiency”.
As to “cp6-FITC: FITC-labeled cp6; CPARYFWDYKCGK(FITC) (CPARYFWDYKCGK(FITC′); not fully specified (bridges); printed as CPARYFWDYKCGK(FITC); cysteine pairing not given here)”, in the series with Jurkat cells, the “Penetration efficiency (FITC signal in cells)” value is “relatively low penetration efficiency”.
Regarding B1, the values for the Ki in series [1] and in series [2] were 152 nM and 333 nM, respectively.
Turning to B2, the Kd amounted to 260 nM in the series with BCL-2-F104L; 120 nM with BCL-2-D111A; 210 nM with BCL-2-D103Y; 730 nM in series [3]; 200 nM in series [4]; 1450 nM with BCL-w (residues 6-152). The same molecule returned a Kd with BCL-2-G101V of 300 nM.
Turning to B3, the results for the Ki in [1] and in [2] were 22.5 nM and 682 nM, respectively.
As to B4, the binding result with cp2-F is on record as “binds”.
As to B5, the Kd with BCL-2-F104L was determined as 710 nM; with BCL-2-D111A, 90 nM; with BCL-2-D103Y, 340 nM; in series [3], 90 nM; in series [4] it was 240 nM; with BCL-w (residues 6-152), 220 nM. In the series with BCL-2-G101V, this molecule had a Kd of 660 nM.
